In article PMC11906892:

Tests used:
ZER1 (ZYG11BL) = ZER1 (ZYG11BL) (Homo sapiens, UniProt Q7Z7L7 520-766); assay: ITC
ZYG11B = ZYG11B (Homo sapiens, UniProt Q9C0D3 445-728); assay: ITC
ZYG11B, sequence (Q9C0D3 445-728): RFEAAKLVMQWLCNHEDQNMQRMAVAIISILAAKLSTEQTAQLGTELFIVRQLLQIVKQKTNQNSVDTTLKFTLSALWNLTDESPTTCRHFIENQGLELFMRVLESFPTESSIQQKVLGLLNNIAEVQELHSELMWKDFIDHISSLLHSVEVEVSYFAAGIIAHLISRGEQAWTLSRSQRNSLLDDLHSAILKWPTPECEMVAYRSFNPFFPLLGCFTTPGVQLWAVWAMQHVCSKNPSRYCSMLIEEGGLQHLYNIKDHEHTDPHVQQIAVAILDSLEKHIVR

ZER1 (ZYG11BL), sequence (Q7Z7L7 520-766): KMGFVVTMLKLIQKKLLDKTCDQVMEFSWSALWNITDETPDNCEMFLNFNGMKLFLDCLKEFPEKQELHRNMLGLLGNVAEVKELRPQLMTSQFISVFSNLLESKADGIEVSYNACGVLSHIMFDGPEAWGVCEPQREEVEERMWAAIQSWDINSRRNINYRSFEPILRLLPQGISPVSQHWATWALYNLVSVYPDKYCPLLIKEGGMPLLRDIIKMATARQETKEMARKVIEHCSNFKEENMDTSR

Question: What does the source list for TCACCCGGTTGGGGCACACGTCTTGTTGATGGCTGC (ssDNA) [Apt#Z6]?
Answer: binding result (ZER1 (ZYG11BL)): no binding; Kd (ZYG11B): 4.69 ± 2.19 µM
